Tests used:
[1] = target: MBS (myosin-binding subunit of myosin phosphatase), endogenous in MDCK cells (dog (endogenous in MDCK)); test: co-IP
[2] = target: GST-moesin (1–323 aa) (human) (UniProt P26038); test: pull-down
[3] = target: HA-full-length moesin (1–577 aa) (mouse) (UniProt P26041); test: pull-down
Chain of UniProt P26041 (P26041 whole entry, the tested form may be a part): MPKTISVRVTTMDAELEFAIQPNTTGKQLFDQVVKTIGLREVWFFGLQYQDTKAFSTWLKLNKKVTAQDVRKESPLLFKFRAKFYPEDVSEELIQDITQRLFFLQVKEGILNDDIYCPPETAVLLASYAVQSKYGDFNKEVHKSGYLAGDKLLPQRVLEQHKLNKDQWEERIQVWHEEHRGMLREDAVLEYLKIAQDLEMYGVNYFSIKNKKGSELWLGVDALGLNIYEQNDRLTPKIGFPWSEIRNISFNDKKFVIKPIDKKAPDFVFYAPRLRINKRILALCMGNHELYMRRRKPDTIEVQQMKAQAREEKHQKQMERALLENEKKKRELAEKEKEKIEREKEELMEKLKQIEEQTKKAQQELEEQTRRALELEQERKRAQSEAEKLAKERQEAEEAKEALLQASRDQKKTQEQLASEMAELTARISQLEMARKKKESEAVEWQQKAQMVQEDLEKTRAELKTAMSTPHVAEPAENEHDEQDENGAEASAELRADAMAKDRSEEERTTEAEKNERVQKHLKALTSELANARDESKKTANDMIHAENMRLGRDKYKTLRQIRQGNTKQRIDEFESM

Chain of UniProt P26038 (P26038 1-323): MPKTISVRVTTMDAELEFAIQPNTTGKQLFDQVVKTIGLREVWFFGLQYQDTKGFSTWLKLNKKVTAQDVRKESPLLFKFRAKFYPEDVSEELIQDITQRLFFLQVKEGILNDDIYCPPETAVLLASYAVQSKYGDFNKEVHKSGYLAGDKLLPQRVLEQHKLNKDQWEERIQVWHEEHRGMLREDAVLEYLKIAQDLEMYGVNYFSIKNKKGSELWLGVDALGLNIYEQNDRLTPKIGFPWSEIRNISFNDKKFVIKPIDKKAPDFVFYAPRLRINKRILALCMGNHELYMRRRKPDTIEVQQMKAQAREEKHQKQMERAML

Substance	percent of total moesin recovered with immunoprecipitated MBS [1]	stoichiometry N (moesin per MBS) [1]	Kd [2]	stoichiometry N [2]	Kd [3]
moesin, endogenous in MDCK cells (natural protein)	0.5%	0.33			
recombinant full-length rat MBS (1–976 aa), myosin-binding subunit of myosin phosphatase (natural protein)			260 nM	0.4	1230 nM

Reference: PMC2148462
